Results as given in patent US20260242478A1 (published 2026).
Where no end group is shown, it is not given here.

B1: Phage-2486 (peptide)
peptide: FPHLCIPYWMCVRT
notes: Clonal phage of the peptide-180 library; not shown: pIII filament protein of the bacteriophage to which the peptide is fused
B2: Phage-2507 (peptide)
peptide: VERLCKPLWMCQER
modifications: cysteine pairing not given here; also: fused to phage pIII, linker and fusion site not given here
notes: not shown: fused to pIII of the bacteriophage
B3: Phage-2506 (peptide)
peptide: VQMLCIPAWMCGME
modifications: cysteine pairing not given here; also: displayed on phage as fusion to pIII, pIII and linker sequence not given here
notes: as for B2
B4: Phage-2487 (peptide)
peptide: DYKWCTPIWMCAGD
modifications: cysteine pairing not given here; also: displayed on phage as fusion to pIII, pIII and linker sequence not given here
notes: as for B1
B5: Phage-2510 (peptide)
peptide: EVKWCIPDWMCSVI
modifications: cysteine pairing not given here; also: fused to phage pIII, linker and fusion site not given here
notes: as for B2
B6: Phage-2488 (peptide)
peptide: VSIWCIPPWMCVEK
notes: as for B1
B7: Phage-2485 (peptide)
peptide: VSPLCKPDWMCNGF
notes: as for B1
B8: Phage-2501 (peptide)
peptide: SDKWCIPVWMCEES
modifications: cysteine pairing not given here; also: displayed on phage as fusion to pIII, pIII and linker sequence not given here
notes: as for B2
B9: Phage-2497 (peptide)
peptide: WPKLCTPPWMCTVD
modifications: cysteine pairing not given here; also: displayed on phage as fusion to pIII, pIII and linker sequence not given here
notes: as for B2
B10: Phage-2504 (peptide)
peptide: IPKWCTPSWMCEWV
modifications: cysteine pairing not given here; also: displayed on phage as fusion to pIII, pIII and linker sequence not given here
notes: as for B2
B11: Phage-2511 (peptide)
peptide: LVKLCSPEWMCVGM
modifications: cysteine pairing not given here; also: fused to phage pIII, linker and fusion site not given here
notes: as for B2
B12: Phage-2494 (peptide)
peptide: HFKMCVPPWMCLFD
notes: as for B1
B13: Phage-2490 (peptide)
peptide: DFKWCTPPWMCDVF
notes: as for B1
B14: Phage-2491 (peptide)
peptide: SVKWCTPSWMCEHM
notes: as for B1
B15: Phage-2505 (peptide)
peptide: LGKWCIPDWMCSGL
modifications: cysteine pairing not given here; also: displayed on phage as fusion to pIII, pIII and linker sequence not given here
notes: as for B2
B16: Phage-2493 (peptide)
peptide: MGNWCTPPWMCTGF
notes: as for B1
B17: Phage-2503 (peptide)
peptide: SETWCIPAWMCLDG
modifications: cysteine pairing not given here; also: displayed on phage as fusion to pIII, pIII and linker sequence not given here
notes: as for B2
B18: Phage-2509 (peptide)
peptide: TYKMCIPAWKCAVS
modifications: cysteine pairing not given here; also: fused to phage pIII, linker and fusion site not given here
notes: as for B2
B19: Phage-2508 (peptide)
peptide: HPSWCTPAWMCQGF
modifications: cysteine pairing not given here; also: fused to phage pIII, linker and fusion site not given here
notes: as for B2
B20: Phage-2482 (peptide)
peptide: VVNWCTPAWMCSGF
modifications: cysteine pairing not given here; also: displayed on phage as fusion to pIII, pIII and linker sequence not given here
notes: as for B1
B21: Phage-2484 (peptide)
peptide: LVRWCVPEWMCAGM
modifications: cysteine pairing not given here; also: displayed on phage as fusion to pIII, pIII and linker sequence not given here
notes: as for B1
B22: Phage-2489 (peptide)
peptide: WAKWCTPEWMCVVH
notes: as for B1
B23: Phage-2500 (peptide)
peptide: GTNWCKPDWMCVGL
modifications: cysteine pairing not given here; also: displayed on phage as fusion to pIII, pIII and linker sequence not given here
notes: as for B2
B24: Phage-2495 (peptide)
peptide: LEKWCIPLWMCQTA
notes: as for B1
B25: Phage-2483 (peptide)
peptide: DSRWCIPDWMCELE
notes: as for B1
B26: Phage-2502 (peptide)
peptide: EPKMCTPSWMCRGF
modifications: cysteine pairing not given here; also: displayed on phage as fusion to pIII, pIII and linker sequence not given here
notes: as for B2
B27: Phage-2499 (peptide)
peptide: GEKWCIPEWMCQDV
modifications: cysteine pairing not given here; also: displayed on phage as fusion to pIII, pIII and linker sequence not given here
notes: as for B2
B28: Phage-2498 (peptide)
peptide: GEHWCIPAWMCEKM
modifications: cysteine pairing not given here; also: displayed on phage as fusion to pIII, pIII and linker sequence not given here
notes: as for B2
B29: Phage-2492 (peptide)
peptide: IEKMCIPAWMCTDK
notes: as for B1
B30: Phage-2496 (peptide)
peptide: ESRLCIPAWMCESQ
notes: as for B1

Legend:
006 PSMA Fab [1] = biological target: T1, 006 PSMA Fab; test: phage ELISA: biotinylated PSMA Fab on neutravidin plate pre-incubated with PSMA antigen (competitor), clonal phage supernatant, anti-M13-HRP detection
T1 construct: also called Anti-PSMA Fab; anti-PSMA Fab
Method: (§1) Clonal phage were harvested as crude supernatants and screened via standard ELISAs. […] Prior to the addition of clonal phage. wells were incubated with blocking buffer and PSMA antigen or blocking buffer alone. Without washing or aspirating, clonal phage supernatants were then added to the wells and incubated for a short time. Wells were then washed followed by detection of bound phage using a horse radish conjugated anti-M13 antibody.

006 PSMA Fab [2] = biological target: T1, 006 PSMA Fab; test: phage ELISA: biotinylated PSMA Fab on neutravidin plate, clonal phage supernatant, anti-M13-HRP detection; blocking buffer alone
Method: as §1

006 PSMA Fab [3] = biological target: T2, 006 PSMA Fab (biotinylated (site not given)); test: clonal phage ELISA on plate-bound PSMA Fab, competitor: PSMA antigen pre-incubated in the wells
T2 construct: Biotinylated PSMA Fab captured on neutravidin coated plates for the clonal phage ELISA; also called Anti-PSMA Fab

006 PSMA Fab [4] = biological target: T2, 006 PSMA Fab; test: clonal phage ELISA, biotinylated PSMA Fab on neutravidin plate, anti-M13 HRP detection;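 further: crude clonal phage supernatants added to wells pretreated with blocking buffer either with or without PSMA antigen, bound phage read after washing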
Method: as §1

PSMA Fab [5] = biological target: T3, PSMA Fab (biotinylated (site not stated)); test: clonal phage ELISA; biotinylated PSMA Fab on neutravidin plate; anti-M13 HRP detection; blocking buffer alone
T3 construct: Biotinylated PSMA Fab captured on neutravidin plates in the phage ELISA; also called Anti-PSMA Fab; 006 PSMA Fab

PSMA Fab [6] = biological target: T3, PSMA Fab; test: clonal phage ELISA; biotinylated PSMA Fab on neutravidin plate pre-incubated with PSMA antigen as competitor; anti-M13 HRP detection;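 further: crude clonal phage supernatants briefly incubated on wells preloaded with PSMA antigen in blocking buffer, or buffer only as control, bound phage detected with HRP-conjugated anti-M13 antibody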
Method: as §1

| Binder | phage binding ELISA signal in presence of PSMA antigen (006 PSMA Fab [1]) | phage binding ELISA signal (006 PSMA Fab [2]) | Phage binding ELISA signal, Anti-PSMA Fab in presence of PSMA (006 PSMA Fab [3]) | Phage binding ELISA signal, Anti-PSMA Fab (006 PSMA Fab [4]) | other results |
| --- | --- | --- | --- | --- | --- |
| B1 | 0.198 | 1.22 | – | – | – |
| B2 | – | – | 0.0748 | 1.2 | – |
| B3 | – | – | 0.107 | 1.2 | – |
| EEPWCIPSWMCALT (cysteine pairing not given here; also: displayed as fusion to phage pIII) [Phage-2449] | – | – | – | – | Phage binding ELISA signal, Anti-PSMA Fab (PSMA Fab [5]): 1.29; Phage binding ELISA signal, Anti-PSMA Fab in presence of PSMA (PSMA Fab [6]): 0.0689 |
| B4 | 0.0707 | 1.22 | – | – | – |
| VVKWCTPPWMCSVW [Phage-2450] | – | – | – | – | Phage binding ELISA signal, Anti-PSMA Fab (PSMA Fab [5]): 1.29; Phage binding ELISA signal, Anti-PSMA Fab in presence of PSMA (PSMA Fab [6]): 0.104 |
| B5 | – | – | 0.0782 | 1.19 | – |
| B6 | 0.101 | 1.22 | – | – | – |
| B7 | 0.0787 | 1.22 | – | – | – |
| B8 | – | – | 0.0874 | 1.21 | – |
| B9 | – | – | 0.0722 | 1.21 | – |
| B10 | – | – | 0.0916 | 1.2 | – |
| B11 | – | – | 0.0667 | 1.19 | – |
| B12 | 0.101 | 1.22 | – | – | – |
| B13 | 0.0763 | 1.22 | – | – | – |
| B14 | 0.0739 | 1.22 | – | – | – |

| Binder | phage binding ELISA signal in presence of PSMA antigen (006 PSMA Fab [1]) | phage binding ELISA signal (006 PSMA Fab [2]) | Phage binding ELISA signal, Anti-PSMA Fab in presence of PSMA (006 PSMA Fab [3]) | Phage binding ELISA signal, Anti-PSMA Fab (006 PSMA Fab [4]) | other results |
| --- | --- | --- | --- | --- | --- |
| B15 | – | – | 0.144 | 1.2 | – |
| B16 | 0.0704 | 1.22 | – | – | – |
| B17 | – | – | 0.0745 | 1.2 | – |
| B18 | – | – | 0.0792 | 1.19 | – |
| B19 | – | – | 0.0911 | 1.2 | – |
| B20 | 0.0652 | 1.23 | – | – | – |
| B21 | 0.0945 | 1.22 | – | – | – |
| B22 | 0.15 | 1.22 | – | – | – |
| B23 | – | – | 0.0855 | 1.21 | – |
| B24 | 0.0777 | 1.22 | – | – | – |
| B25 | 0.0935 | 1.23 | – | – | – |
| B26 | – | – | 0.0691 | 1.2 | – |
| B27 | – | – | 0.0722 | 1.21 | – |
| B28 | – | – | 0.0615 | 1.21 | – |
| B29 | 0.0698 | 1.22 | – | – | – |
| B30 | 0.0772 | 1.22 | – | – | – |
